Holding throughout (experiment): EMSA
Series [1] concerns the target T1, CpxR (Erwinia amylovora Ea1189) (UniProt A0ABX7MGR0).
T1 sequence: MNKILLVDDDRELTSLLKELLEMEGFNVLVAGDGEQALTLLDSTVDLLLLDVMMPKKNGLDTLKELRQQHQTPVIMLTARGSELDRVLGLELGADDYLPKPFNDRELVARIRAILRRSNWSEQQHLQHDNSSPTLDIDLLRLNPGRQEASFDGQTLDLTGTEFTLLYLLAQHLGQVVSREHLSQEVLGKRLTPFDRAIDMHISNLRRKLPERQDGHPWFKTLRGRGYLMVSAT

Series [2] concerns T2, BaeR (Erwinia amylovora Ea1189), ORF:3df56c72.
T2 sequence: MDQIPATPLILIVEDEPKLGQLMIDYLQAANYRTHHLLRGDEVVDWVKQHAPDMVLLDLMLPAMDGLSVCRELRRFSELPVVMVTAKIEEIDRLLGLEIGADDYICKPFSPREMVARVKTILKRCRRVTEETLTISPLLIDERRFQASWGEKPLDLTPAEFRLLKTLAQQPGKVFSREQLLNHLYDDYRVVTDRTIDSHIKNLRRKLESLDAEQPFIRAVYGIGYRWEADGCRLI

In series [3] the test system is BaeR, acetyl phosphate treated (Erwinia amylovora Ea1189).

For the substance “TCTACGGTCACGGTTAAGAAACCGCGTCGTCTTTTGCGCCGTCAGCTGCAGATCACCACGCGTATGCGTGGTTTTTTTGGCGCTATTTCATGGCGATAACATATATTAAATCTCGCATTTCTTACGGAATTCTTACGCTGCCAGCATGGAACGCCAGCAGATAAGCTAAGATAATATGCTTAACTACCCACCACCTTTGGACGGGTAAGGGGCTAAAGCCATGCCCTTTACGCCGGGTTTTTGCGCGCCGGGGATTATCCTGTCGGGTGTTGTTTA (double strand) [mdtUVW upstream region]”, the binding result in series [1] and in series [2] was “no binding” each time.

“TGATTCTCCTGATTGATAAGTGGATAACGCAGCTGATAAGACTGGCAAACAGCGTTGCATGCGCTGCGTTGATTTGTAGCATACCATTTGCCAATACTAAATTTTCTCACCGTAGCAGCTCTTATTTAAGCCGTTATCCTTATTTCCTTCATTTTTCAGCGCCTGAAATTCGCTATCCTTGCCAGCCTGGGGGCAAGCCCTAATCCCGCCCCGCGCCCTGCTTTAATTTCACGGAGAGTAGCACCCAGGATGAAAACACCCCGACGTTTCCCCCTTATCGCCTTGACGGT (double strand) [mdtABC upstream region]”: the binding result in series [1] is “no binding”; in series [2] it was “binds”.

For mdtABC upstream region, in series [3], the binding signal (fold binding vs unphosphorylated BaeR) came to 2.
